In article PMC10155992 one finds stoichiometry N data, which are given here for two substances.

For assay [1], the target named is VP12, major outer capsid protein of mud crab reovirus (MCRV) (mud crab reovirus (MCRV)). In words: cryo-EM structure; single-particle cryo-EM of purified MCRV virions, quiescent (qMCRV) and transcribing (tMCRV), in PBS; icosahedral, C1 and D5 reconstructions; atomic models built de novo.
Assay [2] addresses VP3, inner capsid protein of mud crab reovirus (MCRV) (mud crab reovirus (MCRV)). The description is as above.

For orientation: stoichiometry N means a count of units in the complex or per binding partner. In assay [1], “VP12, major outer capsid protein of mud crab reovirus (MCRV) (natural protein)” registered a stoichiometry N of 3.
As to “VP3, inner capsid protein of mud crab reovirus (MCRV) (natural protein)”, the stoichiometry N in assay [2] is 2.
